In paper PMC6888457, “PpAKR1A, a Novel Aldo-Keto Reductase from Physcomitrella Patens, Plays a Positive Role in Salt Stress” (International Journal of Molecular Sciences, 2019):

T1: PpAKR1A (Physcomitrium patens, UniProt A9RMV1)
T1 construct: gene LOC112295666; full coding region (from ATGGCGTTCGAAGTGCCT), expressed in E. coli BL21 from pMAL-c1 (BamHI/SalI); purified on Ni-NTA as 'His-fusion' (tag description inconsistent: MBP vector vs His)
T1 sequence (A9RMV1 1-354): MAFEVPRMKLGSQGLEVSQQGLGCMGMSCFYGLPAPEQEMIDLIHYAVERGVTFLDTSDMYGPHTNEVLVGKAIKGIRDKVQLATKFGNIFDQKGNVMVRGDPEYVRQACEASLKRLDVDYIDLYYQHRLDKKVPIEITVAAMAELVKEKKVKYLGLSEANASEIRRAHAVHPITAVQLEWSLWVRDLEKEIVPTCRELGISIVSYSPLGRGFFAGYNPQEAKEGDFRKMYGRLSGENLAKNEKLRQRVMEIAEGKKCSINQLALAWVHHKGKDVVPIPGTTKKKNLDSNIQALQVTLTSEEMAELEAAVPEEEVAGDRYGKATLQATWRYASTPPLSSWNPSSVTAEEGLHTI

B1: PpAKR1A (Physcomitrium patens) (protein)
chain: T1 sequence (A9RMV1 1-354)
notes: full coding region (from …), expressed in E. coli BL21 from pMAL-c1 (BamHI/SalI); purified on Ni-NTA as 'His-fusion' (tag description inconsistent: MBP vector vs His)

Columns and labels:
[1] = biological target: T1, PpAKR1A; experiment: spectrophotometric NADPH oxidation at […] nm, Michaelis-Menten non-linear fit; type: biochemical; conditions: 150 µM NADPH, 50 mM Tris-HCl pH 7.0, 25 °C; apparent constant
[2] = substrate: CC(=O)C=O; experiment: purified protein; type: biochemical, Physcomitrium patens; conditions: 150 µM NADPH, 50 mM Tris-HCl pH 7.0, 25 °C, apparent constant
[3] = substrate: O=CC=O; experiment: purified protein; type: biochemical, Physcomitrium patens; conditions: 150 µM NADPH, 50 mM Tris-HCl pH 7.0, 25 °C, apparent constant

Row | Molecule | Km [1] [mM] | Km [2] [mM] | kcat [2] [s⁻¹] | kcat/Km [2] [M⁻¹ s⁻¹] | Km [3] [mM] | kcat [3] [s⁻¹] | kcat/Km [3] [M⁻¹ s⁻¹]
1 | C=CC=O [Acrolein] | 6.2 ± 1.11 |  |  |  |  |  | 
2 | B1 |  | 0.2262 ± 0.063 | 0.86 ± 0.055 | 3810 | 1.526 ± 0.237 | 0.063 ± 0.041 | 63
